Measured values reported in PMC5752445, “Secretory leukocyte protease inhibitor (SLPI) as a potential target for inhibiting metastasis of triple-negative breast cancers” (Oncotarget, 2017).

Molecular target: T1, GAL4-Rb fusion protein (pBIND-Rb) (UniProt P06400 1-928)
T1 construct: source: HEK293T, transiently transfected, mammalian two-hybrid fusion
T1 sequence (looked up): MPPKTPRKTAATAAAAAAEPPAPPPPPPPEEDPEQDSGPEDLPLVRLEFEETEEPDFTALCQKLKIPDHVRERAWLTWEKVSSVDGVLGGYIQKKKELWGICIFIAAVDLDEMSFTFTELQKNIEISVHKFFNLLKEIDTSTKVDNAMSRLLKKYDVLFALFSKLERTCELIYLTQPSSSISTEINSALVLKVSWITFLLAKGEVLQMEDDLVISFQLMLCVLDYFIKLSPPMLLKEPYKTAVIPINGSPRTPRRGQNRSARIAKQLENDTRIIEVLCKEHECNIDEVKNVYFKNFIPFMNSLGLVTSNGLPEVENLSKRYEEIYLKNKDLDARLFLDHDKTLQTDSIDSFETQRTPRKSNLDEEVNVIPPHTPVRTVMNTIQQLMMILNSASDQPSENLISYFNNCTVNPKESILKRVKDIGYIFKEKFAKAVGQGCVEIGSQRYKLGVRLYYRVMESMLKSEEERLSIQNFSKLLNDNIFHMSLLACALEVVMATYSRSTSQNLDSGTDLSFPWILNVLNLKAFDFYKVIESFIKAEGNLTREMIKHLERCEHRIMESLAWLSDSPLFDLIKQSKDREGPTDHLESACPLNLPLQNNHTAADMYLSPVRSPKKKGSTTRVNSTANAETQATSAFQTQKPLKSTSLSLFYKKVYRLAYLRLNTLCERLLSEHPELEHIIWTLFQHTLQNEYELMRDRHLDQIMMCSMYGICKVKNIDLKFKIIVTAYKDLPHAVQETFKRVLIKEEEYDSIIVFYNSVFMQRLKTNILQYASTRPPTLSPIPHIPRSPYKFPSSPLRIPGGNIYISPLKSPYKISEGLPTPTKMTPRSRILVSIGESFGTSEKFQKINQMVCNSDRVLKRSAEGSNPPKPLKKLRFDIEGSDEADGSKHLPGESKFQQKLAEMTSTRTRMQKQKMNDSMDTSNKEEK
Experiment: two-hybrid; mammalian two-hybrid in HEK293T: pBIND (GAL4 DNA-binding domain) and pACT (VP16 activation domain) fusions with pG5luc reporter; luciferase read 48 h after transfection; negative controls pBIND and pACT vectors
Settings: partners not purified

B1: VP16-SLPI fusion protein (pACT-SLPI) (natural protein, UniProt P03973 1-132, looked up)
chain: MKSSGLFPFLVLLALGTLAPWAVEGSGKSFKAGVCPPKKSAQCLRYKKPECQSDWQCPGKKRCCPDTCGIKCLDPVDTPNPTRRKPGKCPVTYGQCLMLNPPNFCEMDGQCKRDLKCCMGMCGKSCVSPVKA
notes: the legend names only pACT constructs of both; source: HEK293T, transiently transfected, mammalian two-hybrid fusion
For B1, which “fold activation of the reporter over the negative controls” value is on record?
The value was roughly 7 times.
